Assay results taken from the supplement of paper PMC10567573.

B1: ZMYND11 (parent)
chain: YCSIKCQQEHWHAEHKRTCRRKR
B2: CAMK2D (parent)
chain: LLKHPNIVRLHDSISEEGFHYLVF

Variants of: B1
Assay: protein stability index of a GFP-peptide fusion (GPS, HEK-293T) (PSI 1-6); higher = more stable
Conditions: c terminus: native
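Note: lentivirally expressed fusions sorted by FACS into six bins by GFP to DsRed ratio, PSI derived from sequencing read proportions per bin multiplied by bin number.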

Protein stability index of substitutions, site by site:
Q8: V 1.78 | E 2.34 | S 2.51 | C 2.51 | P 2.46 | Y 2.08 | H 2.21 | T 1.86 | W 1.85 | N 2.55 | I 1.49 | M 2.48 | K 2.77 | G 2.47 | A 2.33 | L 1.72
R17: N 2.28 | S 2.77 | I 2.58 | M 2.32 | L 2.25 | C 3.29 | E 2.65 | A 2.61 | H 2.44 | T 2.25 | D 2.63 | F 1.8 | P 2.89 | V 2.55 | Q 2.39 | K 2.27
Q7: V 1.37 | I 2.44 | N 2.38 | T 2.63 | D 2.56 | F 1.67 | E 2.42 | C 1.95 | K 3.05 | P 2.2 | M 2.15 | Y 2.35 | G 2.46 | L 2.21 | A 2.36 | W 1.53 | S 3.18 | H 2.69
E9: Y 1.93 | D 2.31 | G 2.89 | R 2.6 | L 2.07 | A 2.65 | I 2.11 | F 2.11 | P 2.11 | K 2.17 | S 1.68 | Q 1.52 | H 2.78 | N 1.94 | W 2.37 | M 1.53 | T 1.97 | C 3.31 | V 2.93
H12: D 2.82 | C 2.09 | T 2.33 | P 2.64 | S 2.22 | M 1.31 | K 2.42 | Y 3.37 | I 1.59 | N 2.9 | A 2.35 | Q 2.36 | V 1.54 | L 2.53 | R 2.53 | E 2.67 | G 2.73
S3: L 1.7 | C 3.31 | F 1.11 | R 2.19 | M 2.19 | V 2.36 | A 1.96 | T 2.48 | D 3.07 | Y 1.94 | Q 2.59 | N 2.85 | H 2.24 | I 1.84 | K 2.61 | G 1.86 | P 2.17 | E 3.27 | W 1.51
E14: K 2.92 | G 3.11 | R 2.35 | I 1.95 | L 1.87 | Q 2.26 | S 2.48 | F 1.76 | A 2.94 | V 2.13 | Y 2.22 | N 2.17 | M 1.77 | T 2.36 | W 1.71 | D 2.26 | C 2.54 | H 2.53 | P 1.84
C6: D 2.69 | E 2.87 | H 2.9 | G 2.74 | T 1.87 | K 2.69 | F 1.96 | N 1.76 | S 2.38 | Y 2.07 | L 1.75 | W 1.77 | R 1.56 | P 2.57 | V 2.59 | Q 1.59 | I 1.78 | M 1.9 | A 2.39

Variants of: B2
Assay: as above
Conditions: c terminus: a fixed tail appended

Protein stability index, by site and new letter:
F24: L 2.94 | H 2.39 | N 1.51 | D 2.21 | K 1.71 | G 2.47 | T 1.15 | R 2.06 | P 1.98 | V 2.12 | Y 2.28 | E 1.73 | Q 1.85 | S 2.13 | W 1.22 | A 1.62 | C 1.84
V23: P 1.84 | T 3.35 | Y 1.22 | S 1.85 | W 2.78 | Q 1.87 | R 3.22
